Test [1] concerns the target Tag-free recombinant human EGFR (Homo sapiens (Human).) (UniProt P00533). Description: ELISA; sandwich ELISA for bispecificity: tag-free EGFR, HER2 or HER3 coated at 1000 ng/ml in PBS; dilutions of BiXAb™ in PBS, 37°C, 1 h; then 1000 ng/ml of the His-tagged second receptor, 37°C, 1 h; detected with peroxidase-conjugated anti-His tag antibody. (In general: An ELISA detects its analyte on a solid surface through an enzyme-linked reagent.)

Test [2] addresses Tag-free recombinant human HER3 ECD (Homo sapiens (Human).) (UniProt P21860). Described as above.

Drawing on article PMC10157173, this text covers EC50 for 1 substance.

As a reminder, the EC50 is the concentration that produces a half-maximal response.

Consider “BiXAb™ 3Patri-1Matu-Fc (bispecific antibody)”, for which the values for the EC50 in test [1] and in test [2] were 170 nM and 0.55 nM, respectively.
